Residue numbers refer to the chain shown, from its start. In names and notes the source's numbering stands. Several values for one entry are separate records, joined by “and”; a condition that tells them apart may be missing. Equal values may be shown once. Read-outs that look alike come from different tables or passages of the source.
Columns and labels:
[1] = Ca2+ sensitivity curves of reconstituted photoproteins (L/Lmax vs free Ca2+); type: biochemical; conditions: for affinity to calcium group relative to Aeq-wt: at pCa 6.5, FIG. 2; for EC50: read-out: Calcium sensitivity, EC50
Protocol: For in vitro reconstitution, the purified and concentrated samples of apoaequorin and redquorin mutant proteins were buffer-exchanged to 50 mM Tris-HCl (pH 7.5), 150 mM NaCl, 10 mM EGTA, 5 mM ß-mercaptoethanol, supplemented with 5 μM CLZ-f or CLZ-native and incubated overnight at 4° C., in the dark. The next day, samples were passed through molecular weight cut-offs (AmiconUitra MWCO, 10K and 50K, from Millipore), then resuspended in Zero-Ca^2+ buffer (30 mM MOPS, 100 mM KCl and 10 mM EGTA, pH 7.2) for calcium affinity, emission decay kinetics and spectral analysis assays. As for in cellulo reconstitution, HEK cells transiently expressing the proteins of apoaequorin and aporedquorin mutants were washed twice with Hank's Balanced Salt Solution (HBSS) and incubated in the dark, with 4 μM of the desired CLZ diluted in OptiMEM I medium (Gibco), for 2-3h at 37° C. and 5% CO2. Cells were washed once and maintained in HBSS at 37° C. for 20 min before the experiment.
Functional Analysis of Aequorin Mutants and Fusions Ca^2+ Sensitivity Curves.
Purified and reconstituted samples with CLZ-f or CLZ-native already buffered-exchanged to zero-calcium buffer ensured to minimize calcium contamination that could interfere with the measurements. Fifteen microliter aliquot of photoprotein samples (concentration range, 50 to 90 ng/μl) was placed in a home-made luminometer and mixed with 300 μl solution containing the desired concentration of free-Ca^2+. The solutions of EGTA-buffered with varying free-Ca^2+ prepared according to the manufacturer instruction for the kit (Molecular Probes, Invitrogen). Integration of the luminescence emission (per second) was measured for 20 seconds (background) before injecting a solution with known [free-Ca^2+] and lasted until stable or decaying signal (at final-phase) was obtained. At this point, 400 μl of a saturating calcium solution (30 mM MOPS, 100 mM CaCl2, pH 7.2) was rapidly injected (less than 30 ms) and light integration continued until all aequorin had been consumed and light intensity had gone back to background signal. Luminescence intensity (L) at different [Ca^2+] was taken as the response peak value in case of decaying signal or as the stable value in case of stable emission. Lmax, was measured by integrating all remaining luminescence signal from that moment (L value) to the end of the experiment. The EC50 values were extracted from a sigmoidal dose-response fit (variable slope) using GraphPad Prism software.

[2] = Thermostability: relative bioluminescence activity after 30 min incubation; type: physicochemical; conditions: for Thermostability, luminescence activity relative to wt-aequorin: CLZ-f; for less activity compared to wt-aeq (thermostability): after incubation at 30 and 40° C.
Protocol: Thermostability of aequorin and redquorin mutant with increased affinity for calcium were compared to wt-aequorin (FIG. 5). The purified photoprotein samples were reconstituted with CLZ-f (as detailed earlier) and let to calibrate at room temperature (20-24° C.) for 20 min before taken the first measurement of total counts using saturating calcium solution (50 mM Tris-HCl, 100 mM CaCl2, pH 7.5). Samples were then incubated at two different temperatures (30 to 40° C.) for 30 min, and let equilibrate at room temperature for 15 minbefore taken the second measurement of total counts in the sample. The relative bioluminescence activity at each temperature was calculated by the ratio 2nd counts (at target T° C.)/1st counts (at initial T° C.) multiplied by 100.
Table 6 highlights the analysis of thermostability data obtained at two temperatures for aequorin and redquorin mutants, as well as CitA and GA. The values represent the degree of change in luminescence activity compared to wt-aeq, at each temperature. All values are relative to wt-aequorin (at each temperature) and were calculated by dividing the obtained data for each mutant/variant by the data for wt-aeq (as reference). The data were taken from FIG. 5.

[3] = CLZ-f, L/Lmax compared to Aeq-wt
[4] = aequorin proteins reconstituted with CLZ-f, sigmoidal curve fit, mean ± SD, n at least 3

B1: A123D: apoaequorin mutant, alanine 123 replaced by aspartic acid (SEQ ID NO:10) (protein)
chain: SKLTSDFDNPRWIGRHKHMFNFLDVNHNGKISLDEMVYKASDIVINNLGATPEQAKRHKDAVEAFFGGAGMKYGVETDWPAYIEGWKKLATDELEKYAKNEPTLIRIWGDALFDIVDKDQNGDITLDEWKAYTKAAGIIQSSEDCEETFRVCDIDESGQLDVDEMTRQHLGFWYTMDPACEKLYGGAVP
modifications: mutant aequorin
Q: With B1 as the molecule, how does the “Relative intensity at pCa 6.5” value [1, 3] read?
A: 3.6

Q: What about the “Relative intensity at pCa 7.2” value [1, 3] of the same molecule?
A: 1.6

Q: What about the “affinity to calcium group relative to Aeq-wt” value ([1]; CLZ-f) of the same molecule?
A: medium-high to high

Q: What about the EC50 [1, 4] of the same molecule?
A: 374 nM

Q: And the “Thermostability, luminescence activity relative to wt-aequorin” value ([2]; 30° C. for 30 min)?
A: 0.82

Q: What about the “Thermostability, luminescence activity relative to wt-aequorin” value ([2]; 40° C. for 30 min) of the same molecule?
A: 0.84

Q: And the “less activity compared to wt-aeq (thermostability)” value [2]?
A: 19%

B2: A179T: apoaequorin mutant, alanine 179 replaced by threonine (SEQ ID NO:11) (protein)
chain: B1 chain with D123A, A179T
modifications: mutant aequorin
Q: For B2, which “Relative intensity at pCa 6.5” value [1, 3] is on record?
A: 3.0

Q: What about the “Relative intensity at pCa 7.2” value [1, 3] of the same molecule?
A: 1.3

Q: And the “affinity to calcium group relative to Aeq-wt” value ([1]; CLZ-f)?
A: medium-high to high

Q: And the EC50 [1, 4]?
A: 330 nM

Q: And the “Thermostability, luminescence activity relative to wt-aequorin” value ([2]; 30° C. for 30 min)?
A: 0.96

Q: What about the “Thermostability, luminescence activity relative to wt-aequorin” value ([2]; 40° C. for 30 min) of the same molecule?
A: 1.02

B3: QD + ND: apoaequorin double mutant Q159D + N121D (SEQ ID NO:13) (protein)
chain: B1 chain with N121D, D123A, Q159D
modifications: mutant aequorin
Q: Which “Relative intensity at pCa 6.5” value [1, 3] does the source give for B3 here?
A: 29.0

Q: What about the “Relative intensity at pCa 7.2” value [1, 3] of the same molecule?
A: 41.7

Q: And the EC50 [1, 4]?
A: 295 ± 17 nM

Q: What about the “Thermostability, luminescence activity relative to wt-aequorin” value ([2]; 30° C. for 30 min) of the same molecule?
A: 0.81

Q: What about the “Thermostability, luminescence activity relative to wt-aequorin” value ([2]; 40° C. for 30 min) of the same molecule?
A: 0.81

Q: And the “less activity compared to wt-aeq (thermostability)” value [2]?
A: 20%

B4: Q159E: apoaequorin mutant, glutamine 159 replaced by glutamic acid (SEQ ID NO:8) (protein)
chain: B1 chain with D123A, Q159E
modifications: mutant aequorin
Q: Which “Thermostability, luminescence activity relative to wt-aequorin” value ([2]; 30° C. for 30 min) does the source give for B4 here?
A: 0.89

Q: What about the “Thermostability, luminescence activity relative to wt-aequorin” value ([2]; 40° C. for 30 min) of the same molecule?
A: 0.94

B5: S157D: apoaequorin mutant, serine 157 replaced by aspartic acid (SEQ ID NO:12) (protein)
chain: B1 chain with D123A, S157D
modifications: mutant aequorin
Q: Which results are given for B5?
A: Relative intensity at pCa 6.5 [1, 3]: 6.0; Relative intensity at pCa 7.2 [1, 3]: 2.2; EC50 [1, 4]: 322 nM; Thermostability, luminescence activity relative to wt-aequorin ([2]; 30° C. for 30 min): 0.77; Thermostability, luminescence activity relative to wt-aequorin ([2]; 40° C. for 30 min): 0.71; less activity compared to wt-aeq (thermostability) [2]: up to 29%

B6: QD + AT: apoaequorin double mutant Q159D + A179T (SEQ ID NO:17) (protein)
chain: B1 chain with D123A, Q159D, A179T
modifications: mutant aequorin
Q: Which “Relative intensity at pCa 6.5” value [1, 3] does the source give for B6 here?
A: 58.5

Q: What about the “Relative intensity at pCa 7.2” value [1, 3] of the same molecule?
A: 60.8

Q: And the EC50 [1, 4]?
A: 216 nM

Q: And the “Thermostability, luminescence activity relative to wt-aequorin” value ([2]; 30° C. for 30 min)?
A: 1.05

Q: What about the “Thermostability, luminescence activity relative to wt-aequorin” value ([2]; 40° C. for 30 min) of the same molecule?
A: 1.07

B7: Q159D: apoaequorin mutant, glutamine 159 replaced by aspartic acid (SEQ ID NO:5) (protein)
chain: B1 chain with D123A, Q159D
modifications: mutant aequorin
Q: Which “Relative intensity at pCa 6.5” value [1, 3] does the source give for B7 here?
A: 25 and 25.1

Q: What about the “affinity to calcium group relative to Aeq-wt” value ([1]; CLZ-f) of the same molecule?
A: medium-high to high and high

Q: What about the EC50 [1, 4] of the same molecule?
A: 330 nM

Q: What about the “Thermostability, luminescence activity relative to wt-aequorin” value ([2]; 30° C. for 30 min) of the same molecule?
A: 0.95

Q: And the “Thermostability, luminescence activity relative to wt-aequorin” value ([2]; 40° C. for 30 min)?
A: 1.00

B8: Q159T: apoaequorin mutant, glutamine 159 replaced by threonine (SEQ ID NO:6) (protein)
chain: B1 chain with D123A, Q159T
modifications: mutant aequorin
Q: With B8 as the molecule, how does the “Relative intensity at pCa 6.5” value [1, 3] read?
A: 16 and 16.6

Q: And the “Relative intensity at pCa 7.2” value [1, 3]?
A: 4.8

Q: What about the “affinity to calcium group relative to Aeq-wt” value ([1]; CLZ-f) of the same molecule?
A: medium-high to high

Q: What about the EC50 [1, 4] of the same molecule?
A: 249 ± 13 nM

Q: What about the “Thermostability, luminescence activity relative to wt-aequorin” value ([2]; 30° C. for 30 min) of the same molecule?
A: 0.92

Q: And the “Thermostability, luminescence activity relative to wt-aequorin” value ([2]; 40° C. for 30 min)?
A: 0.96

B9: N121D: apoaequorin mutant, asparagine 121 replaced by aspartic acid (SEQ ID NO:9) (protein)
chain: B1 chain with N121D, D123A
modifications: mutant aequorin
Q: Which results are given for B9?
A: Relative intensity at pCa 6.5 [1, 3]: 4.9; Relative intensity at pCa 7.2 [1, 3]: 2.1; EC50 [1, 4]: 400 ± 14 nM; Thermostability, luminescence activity relative to wt-aequorin ([2]; 30° C. for 30 min): 0.81; Thermostability, luminescence activity relative to wt-aequorin ([2]; 40° C. for 30 min): 0.82; less activity compared to wt-aeq (thermostability) [2]: 19%

B10: Redq/QT + AT: aporedquorin mutant Q159T + A179T (SEQ ID NO:24) (protein)
chain: MVSKGEEVIKEFMRFKVRMEGSMNGHEFEIEGEGEGRPYEGTQTAKLKVTKGGPLPFAWDILSPQFMYGSKAYVKHPADIPDYKKLSFPEGFKWERVMNFEDGGLVTVTQDSSLQDGTLIYKVKMRGTNFPPDGPVMQKKTMGWEASTERLYPRDGVLKGEIHQALKLKDGGHYLVEFKTIYMAKKPVQLPGYYYVDTKLDITSHNEDYTIVEQYERSEGRHHLFLGHGTGSTGSGSSGTASSEDNNMAVIKEFMRFKVRMEGSMNGHEFEIEGEGEGRPYEGTQTAKLKVTKGGPLPFAWDILSPQFMYGSKAYVKHPADIPDYKKLSFPEGFKWERVMNFEDGGLVTVTQDSSLQDGTLIYKVKMRGTNFPPDGPVMQKKTMGWEASTERLYPRDGVLKGEIHQALKLKDGGHYLVEFKTIYMAKKPVQLPGYYYVDTKLDITSHNEDYTIVEQYERSEGRHHLFLSGFDNPRWIGRHKHMFNFLDVNHNGKISLDEMVYKASDIVINNLGATPEQAKRHKDAVEAFFGGAGMKYGVETDWPAYIEGWKKLATDELEKYAKNEPTLIRIWGDALFDIVDKDQNGAITLDEWKAYTKAAGIIQSSEDCEETFRVCDIDESGTLDVDEMTRQHLGFWYTMDPTCEKLYGGAVP
modifications: mutant aequorin
Q: For B10, which EC50 ([1]; CLZ-f, redquorin series, CitA, GA) is on record?
A: 284 ± 30 nM

Q: What about the “Relative intensity at pCa 6.5” value ([1]; CLZ-f, relative to Redq) of the same molecule?
A: 25.6

Q: And the “Relative intensity at pCa 7.2” value ([1]; CLZ-f, relative to Redq)?
A: 9.0

Q: What about the EC50 ([1]; CLZ-native, redquorin series, CitA, GA) of the same molecule?
A: 605 ± 16 nM

Q: And the “Relative intensity at pCa 6.5” value ([1]; CLZ-native, relative to Redq)?
A: 18.3

Q: And the “Relative intensity at pCa 7.2” value ([1]; CLZ-native, relative to Redq)?
A: 14.1

Q: What about the “Thermostability, luminescence activity relative to wt-aequorin” value ([2]; 30° C. for 30 min) of the same molecule?
A: 0.96

Q: And the “Thermostability, luminescence activity relative to wt-aequorin” value ([2]; 40° C. for 30 min)?
A: 1.03
